Reference: the Immune Epitope Database (IEDB)

How the values were obtained:
HLA-A*03:01 [1] = assay: IEDB peptide-MHC binding, purified MHC/competitive/fluorescence; ≥ and ≤ were set here for values at or beyond the usual limits of such assays
HLA-A*02:01 [2] = assay: as above; settings: source organism: Zaire ebolavirus
HLA-A*24:02 = assay: as above; settings: source organism: Zaire ebolavirus
HLA-A*11:01 [3] = assay: as above
HLA-B*15:01 [4] = assay: as above; settings: source organism: Zaire ebolavirus
HLA-B*57:01 [5] = assay: IEDB peptide-MHC binding, purified MHC/competitive/radioactivity; filed as Kd, often an IC50 or EC50 that approximates it; ≥ and ≤ were set here for values at or beyond the usual limits of such assays
HLA-A*02:19 = assay: IEDB peptide-MHC binding, purified MHC/competitive/fluorescence; filed as Kd, often an IC50 or EC50 that approximates it; ≥ and ≤ were set here for values at or beyond the usual limits of such assays
HLA-A*02:01 [6] = assay: as above
HLA-A*69:01 [7] = assay: as above; settings: source organism: Human immunodeficiency virus 1
HLA-A*02:11 = assay: as above
HLA-C*05:01 = assay: IEDB peptide-MHC binding, purified MHC/direct/fluorescence; filed as Kd, often an IC50 or EC50 that approximates it; ≥ and ≤ were set here for values at or beyond the usual limits of such assays
HLA-A*69:01 [8] = assay: as above
HLA-A*03:01 [9] = assay: as above
HLA-A*11:01 [10] = assay: as above
HLA-B*45:06 = assay: IEDB peptide-MHC binding, purified MHC/competitive/fluorescence; filed as Kd, often an IC50 or EC50 that approximates it; ≥ and ≤ were set here for values at or beyond the usual limits of such assays; settings: source organism: Yersinia pestis Nepal516
HLA-B*83:01 = assay: as above; settings: source organism: Yersinia pestis Nepal516
HLA-B*15:42 = assay: as above; settings: source organism: Yersinia pestis Nepal516
HLA-A*31:01 [11] = assay: as above
HLA-B*46:01 [12] = assay: as above; settings: source organism: Salmonella enterica subsp. enterica serovar Typhi
HLA-A*03:01 [13] = assay: as above
HLA-B*39:01 = assay: as above; settings: source organism: Salmonella enterica subsp. enterica serovar Typhi
HLA-A*29:02 [14] = assay: as above; settings: source organism: Salmonella enterica subsp. enterica serovar Typhi
HLA-A*02:03 = assay: as above; settings: source organism: Salmonella enterica subsp. enterica serovar Typhi
HLA-B*57:01 [15] = assay: as above; settings: source organism: Salmonella enterica subsp. enterica serovar Typhi
HLA-A*02:12 = assay: as above; settings: source organism: Salmonella enterica subsp. enterica serovar Typhi
HLA-B*51:01 = assay: as above; settings: source organism: Salmonella enterica subsp. enterica serovar Typhi
HLA-B*15:01 [16] = assay: as above
HLA-B*18:01 [17] = assay: as above; settings: source organism: Salmonella enterica subsp. enterica serovar Typhi
HLA-B*27:03 = assay: as above; settings: source organism: Salmonella enterica subsp. enterica serovar Typhi
HLA-B*15:17 = assay: IEDB peptide-MHC binding, purified MHC/direct/fluorescence; filed as Kd, often an IC50 or EC50 that approximates it; ≥ and ≤ were set here for values at or beyond the usual limits of such assays; settings: source organism: West Nile virus
HLA-B*57:01 [18] = assay: as above
HLA-B*58:01 = assay: as above
HLA-A*30:02 = assay: IEDB peptide-MHC binding, purified MHC/competitive/radioactivity; filed as Kd, often an IC50 or EC50 that approximates it; ≥ and ≤ were set here for values at or beyond the usual limits of such assays; settings: source organism: Dengue virus 4 Philippines/H241/1956
HLA-B*15:01 [19] = assay: as above; settings: source organism: Dengue virus 4 Philippines/H241/1956
HLA-B*48:01 = assay: IEDB peptide-MHC binding, purified MHC/direct/fluorescence; filed as Kd, often an IC50 or EC50 that approximates it; ≥ and ≤ were set here for values at or beyond the usual limits of such assays; settings: source organism: Mycobacterium tuberculosis variant bovis
HLA-B*46:01 [20] = assay: as above; settings: source organism: Mycobacterium tuberculosis variant bovis
HLA-B*27:05 = assay: as above; settings: source organism: Mycobacterium tuberculosis variant bovis
HLA-A*29:02 [21] = assay: as above
HLA-A*31:01 [22] = assay: as above; settings: source organism: Mycobacterium tuberculosis variant bovis
HLA-A*01:01 = assay: as above
HLA-B*08:01 = assay: as above; settings: source organism: Mycobacterium tuberculosis variant bovis
HLA-B*40:01 = assay: as above; settings: source organism: Mycobacterium tuberculosis variant bovis
HLA-B*15:01 [23] = assay: as above; settings: source organism: Mycobacterium tuberculosis variant bovis
HLA-B*18:01 [24] = assay: as above; settings: source organism: Mycobacterium tuberculosis variant bovis
[25] = source organism: Zaire ebolavirus
[26] = source organism: Human immunodeficiency virus 1
[27] = source organism: West Nile virus
[28] = source organism: Yersinia pestis
[29] = source organism: Salmonella enterica subsp. enterica serovar Typhi
[30] = source organism: Brucella abortus bv. 2 str. 86/8/59
[31] = source organism: Vaccinia virus WR
[32] = source organism: Escherichia coli 536
[33] = source organism: dengue virus type 4
[34] = source organism: Mycobacterium tuberculosis variant bovis
[35] = source organism: Sudan ebolavirus
[36] = source organism: Vaccinia virus Copenhagen

AIGLAWIPY
IC50 (HLA-A*03:01 [1]; [25]): 1.54 µM
IC50 (HLA-A*02:01 [2]): ≥ 245 µM
IC50 (HLA-A*24:02): ≥ 166 µM
IC50 (HLA-A*11:01 [3]; [25]): 61.4 µM
IC50 (HLA-B*15:01 [4]): 1.46 µM

ASLPKTSGH
IC50 (HLA-A*03:01 [1]; [25]): 20.1 µM
IC50 (HLA-A*11:01 [3]; [25]): 2.61 µM
IC50 (HLA-B*15:01 [4]): ≥ 143 µM

ATTAAGPPK
IC50 (HLA-A*03:01 [1]; [25]): 6.3 µM
IC50 (HLA-A*02:01 [2]): ≥ 354 µM
IC50 (HLA-A*11:01 [3]; [25]): 0.762 µM

AVFTEENQW
Kd (HLA-B*57:01 [5]; source organism: Dengue virus 3 Martinique/1243/1999): 0.0495 µM

ELADQLIHL
Kd (HLA-A*02:19; [26]): 0.00675 µM
Kd (HLA-A*02:01 [6]; [26]): 1.16 µM
Kd (HLA-A*69:01 [7]): ≤ 0.001 µM
Kd (HLA-A*02:11; [26]): 0.0262 µM

EMYRHILRS
IC50 (HLA-A*03:01 [1]; [25]): ≥ 96.9 µM
IC50 (HLA-A*02:01 [2]): 8.88 µM

ESSPNPTVEA
Kd (HLA-B*57:01 [5]; source organism: Dengue virus 2 Peru/IQT2913/1996): 0.323 µM

FLAVGGVLL
Kd (HLA-C*05:01; [27]): 4.18 µM
Kd (HLA-A*69:01 [8]; [27]): ≥ 20 µM

FPSVFINPV
Kd (HLA-C*05:01; source organism: Myxoma virus): ≥ 20 µM

GSYFSGFYK
Kd (HLA-A*03:01 [9]; [28]): 0.0137 µM
Kd (HLA-A*11:01 [10]; [28]): ≤ 0.001 µM
Kd (HLA-B*45:06): ≥ 5 µM
Kd (HLA-B*83:01): ≥ 5 µM
Kd (HLA-B*15:42): ≥ 5 µM
Kd (HLA-A*31:01 [11]; source organism: Yersinia pestis Nepal516): ≤ 0.001 µM

HVTQHWPQL
Kd (HLA-B*46:01 [12]): ≥ 20 µM
Kd (HLA-A*03:01 [13]; [29]): ≥ 20 µM
Kd (HLA-B*39:01): ≥ 20 µM
Kd (HLA-A*29:02 [14]): ≥ 20 µM
Kd (HLA-A*02:19; [29]): ≥ 20 µM
Kd (HLA-A*02:01 [6]; [29]): ≥ 20 µM
Kd (HLA-A*02:03): ≥ 20 µM
Kd (HLA-B*57:01 [15]): ≥ 20 µM
Kd (HLA-A*02:12): 7.05 µM
Kd (HLA-B*51:01): ≥ 20 µM
Kd (HLA-B*15:01 [16]; [29]): ≥ 20 µM
Kd (HLA-B*18:01 [17]): ≥ 20 µM
Kd (HLA-B*27:03): ≥ 20 µM
Kd (HLA-A*02:11; [29]): ≥ 20 µM

ILDDPEIYP
Kd (HLA-A*02:01 [6]; [30]): 12 µM
Kd (HLA-A*02:11; [30]): 0.677 µM

ITYTDVLRY
Kd (HLA-A*03:01 [9]; [27]): 0.144 µM
Kd (HLA-B*15:17): ≤ 0.001 µM
Kd (HLA-B*57:01 [18]; [27]): 0.105 µM
Kd (HLA-A*11:01 [10]; [27]): 0.0148 µM
Kd (HLA-B*58:01; [27]): 0.038 µM
Kd (HLA-A*31:01 [11]; [27]): ≥ 20 µM

KHVGLITCK
IC50 (HLA-A*03:01 [1]; [31]): 47.2 µM
IC50 (HLA-A*11:01 [3]; [31]): ≥ 80 µM

KLIAVPHTK
Kd (HLA-A*03:01 [13]; [32]): 0.135 µM
Kd (HLA-A*31:01 [11]; [32]): 0.9 µM
Kd (HLA-B*15:01 [16]; [32]): ≥ 20 µM

KVASAGISY
Kd (HLA-A*11:01 [10]; [33]): 0.0521 µM
Kd (HLA-A*31:01 [11]; [33]): ≥ 20 µM
Kd (HLA-A*30:02): 0.0404 µM
Kd (HLA-B*15:01 [19]): 0.00185 µM

MLYKSSKSR
Kd (HLA-A*03:01 [13]; source organism: Kurkino virus): 0.0032 µM
Kd (HLA-A*31:01 [11]; source organism: Kurkino virus): 0.0517 µM

PMQQLTQPL
Kd (HLA-B*48:01): ≥ 20 µM
Kd (HLA-B*46:01 [20]): ≥ 20 µM
Kd (HLA-B*27:05): ≥ 20 µM
Kd (HLA-A*03:01 [9]; [34]): ≥ 20 µM
Kd (HLA-A*29:02 [21]; [34]): ≥ 20 µM
Kd (HLA-B*57:01 [18]; [34]): ≥ 20 µM
Kd (HLA-A*31:01 [22]): ≥ 20 µM
Kd (HLA-A*11:01 [10]; [34]): ≥ 20 µM
Kd (HLA-A*01:01; [34]): ≥ 20 µM
Kd (HLA-B*08:01): ≥ 20 µM
Kd (HLA-B*40:01): ≥ 20 µM
Kd (HLA-B*15:01 [23]): ≥ 20 µM
Kd (HLA-B*18:01 [24]): ≥ 20 µM
Kd (HLA-B*58:01; [34]): ≥ 20 µM
Kd (HLA-A*69:01 [8]; [34]): ≥ 20 µM

PTAIYTLEY
Kd (HLA-A*29:02 [21]; source organism: Mycobacterium tuberculosis str. Haarlem): 0.006 µM
Kd (HLA-A*01:01; source organism: Mycobacterium tuberculosis): 0.0092 µM

QLPRDKFRK
IC50 (HLA-A*03:01 [1]; [35]): 3.38 µM
IC50 (HLA-A*11:01 [3]; [35]): 0.723 µM

TKLYKNKSK
IC50 (HLA-A*03:01 [1]; [36]): 44.3 µM
IC50 (HLA-A*11:01 [3]; [36]): 57.5 µM

VIAFLILAK
IC50 (HLA-A*03:01 [1]; [35]): 1.69 µM
IC50 (HLA-A*11:01 [3]; [35]): 0.564 µM

VQQGIVRQR
IC50 (HLA-A*03:01 [1]; [25]): ≥ 160 µM
IC50 (HLA-A*11:01 [3]; [25]): 8.37 µM
